{
  "source": "patent US20060099689",
  "proteins": {"B1": {"name": "murine caspase 7 (protein)", "chain 1": "AKPDRSSIISSILLKKKRNASAGPVRTGRDRVPTYLYRMDFQKMGKCIIINNKNFDKATGMDVRNGTDKDAGALFKCFQNLGFEVTVHNDCSCAKMQDLLRKASEEDHSNSACFACVLLSHGEEDLIYGKDGVTPIKDLTAHFRGDRCKTLLEKPKLFFIQACRGTELDDGIQAD", "chain 2": "ANPRNKIPVEADFLFAYSTVPGYYSWRNPGKGSWFVQALCSILNEHGKDLEIMQILTRVNDRVARHFESQSDDPRFNEKKQIPCMVSMLTKELYFSR"}, "B2": {"name": "murine Caspase-3 (protein)", "chain 1": "SGIYLDSSYKMDYPEMGICIIINNKNFHKSTGMSSRSGTDVDAANLRETFMGLKYQVRNKNDLTREDILELMDSVSKEDHSKRSSFVCVILSHGDEGVIYGTNGPVELKKLTSFFRGDYCRSLTGKPKLFIIQACRGTELDCGIETD", "chain 2": "SGTDEEMACQKIPVEADFLYAYSTAPGYYSWRNSKDGSWFIQSLCSMLKLYAHKLEFMHILTRVNRKVATEFESFSLDSTFHAKKQIPCIVSMLTKELYFYH"}},
  "key": {"[1]": {"target": "the 20 fusion proteins of the formula H-GST-DEVD/X-mLIF, where X is any of the possible 20 amino acids"}, "[2]": {"target": "fusion protein of GST and mLIF where the DEVD site is preceded by a GPGS sequence (L1: GPGSDEVD), P09056"}, "[3]": {"target": "fusion protein of GST and mLIF with only the DEVD site in the linker (L0: DEVD), P09056"}, "[4]": {"target": "H-GST-DEVD/S-mLIF, P09056"}},
  "data": [
    {"protein": "B1", "values": [
      {"measurement": "efficiency of cleavage", "setting": "H-GST-DEVD/mLIF, P09056", "value": "the murine caspase 7 was not as active as the murine caspase 3 and more enzyme needed to be added to obtain the same efficiency of cleavage"}
    ]},
    {"protein": "B2", "values": [
      {"measurement": "processing of the fusion protein (gel, FIG. 3b)", "setting": "GST-C-hIFNα", "value": "Caspase-3 on the other hand gave a high yield of processing even after only 45 minutes of incubation"},
      {"measurement": "cleavage of P1′ variants (gel, FIG. 6)", "setting": "[1]", "value": "all amino acids in the P1′ position could be processed by Caspase-3"},
      {"measurement": "percent of fusion product processed (densitometric scanning of the gel)", "setting": "[2]", "value": "90% of the fusion product containing L1 was processed"},
      {"measurement": "amount of enzyme sufficient to process 10 microgram of fusion protein", "setting": "H-GST-DEVD/mLIF, P09056", "value": "as little as 50 ng of enzyme is sufficient to process 10 microgram of protein"},
      {"measurement": "percent of fusion protein processed (50 ng enzyme, 45 minutes)", "setting": "H-GST-DEVD/mLIF, P09056", "value": "An amount of 50 ng is sufficient to process >90% of 10 microgram of a GST-mLIF fusion protein"},
      {"measurement": "time needed for processing", "setting": "H-GST-DEVD/mLIF, P09056", "value": "the reaction was finished after 45 minutes when using Caspase-3"},
      {"measurement": "percent of fusion protein processed (2 microgram enzyme on 10 microgram substrate)", "setting": "MBP-L0-hIFNalpha", "value": "2 microgram of caspase 3 is needed to process only 50% of 10 microgram of MBP-L0-hIFNalpha"},
      {"measurement": "processing yield (densitometric scanning of the gel)", "setting": "[3]", "value": "only 10% processing yield was seen under these conditions when using the L0 linker"},
      {"measurement": "amount of enzyme sufficient to process 10 microgram of fusion protein", "setting": "[4]", "value": "as little as 50 ng of enzyme is sufficient to process 10 microgram of protein"},
      {"measurement": "time needed for processing", "setting": "[4]", "value": "the reaction was finished after 45 minutes when using Caspase-3"}
    ]}
  ]
}
